For the assay, the target named is T1, human kisspeptin receptor (KISS1R) (human, UniProt Q969F8 1-398).
T1 construct: whole, on cells; Assayed as crude membrane fractions of tetracycline-induced Flp-In T-Rex 293 cells expressing the receptor; also called GPR54; hKiSSR
Briefly: radioligand competition, hKISS1R membranes; legend: A is <10 nM. The method, then:
The cells are grown to 85-100% confluence on standard tissue culture dishes in Dulbecco's Modified Eagles Medium (DMEM) (Corning) supplemented with 10% FBS (Gemini), 1% penicillin-streptomycin-glutamine (Gibco), 500 μg/mL hygromycin, and 15 μg/mL blastacidin. 48 hrs prior to preparing membranes 10 μg/ml of tetracycline is added to the culture media to induce receptor expression. To prepare membranes, cells are scraped and collected in 1× Dulbecco's phosphate buffered saline (Corning) and then pelleted at 1000 RPMs. The cell pellet is reconstituted in membrane preparation buffer (20 mM HEPES, 6 mM MgCl₂ and 1 mM EGTA, protease inhibitor tablets (Pierce), pH 7.4) and placed in a cell disruption vessel (Parr Instrument company) at 1000 PSI for 30 min on ice. The pressurized contents are then released and spun down at 1000 RPMs and the supernatant is collected and further centrifuged at 15,000 RPMs to pellet the membranes. The membrane pellet is resuspended in membrane preparation buffer, snap frozen and stored at −80° C. for later use.
Assay contents are then filtered through unifilter CF/C: microplates (PerkinElmer) pre-soaked with 0.5% BSA and washed with 9×400 μL of cold wash buffer (10 mM HEPES, 500 mM NaCl, 0.1% Tween-20, pH7.4). Assay plates are read using a Microbeta² (PerkinElmer) and Ki values for compounds are determined using a GraphPad Prism 9.3 non-linear regression analysis.
In general terms: Displacement assays read how much labelled ligand stays bound in the presence of the test substance.

Numbered stars: 1 amine (or outer) side, 2 acyl side, 3 side chain; on linkers, the order of the positions; unused ones are H or OH. Square brackets hold non-standard residues; d marks the D form. * marks the point of attachment. X2 = 4‑amino‑1‑((3-fluoro-4-methylbenzyl)glycyl)piperidine‑4‑carboxylic acid, Cc1ccc(CN(CC(=O)N2CCC(N[*:1])(C(=O)[*:2])CC2)[*:3])cc1F; X10 = 3‑(2-(2-(3-(4-iodophenyl)propanamido)ethoxy)ethoxy)propanoyl, O=C(CCc1ccc(I)cc1)NCCOCCOCCC(=O)*; DOTA = O=C(O)CN1CCN(CC(=O)O)CCN(CC(=O)*)CCN(CC(=O)O)CC1; Api(1-amidino) = N=C(N)N1CCC(N)(C(=O)O)CC1; 4Pal = N[C@@H](Cc1ccncc1)C(=O)O; d4Pal = N[C@H](Cc1ccncc1)C(=O)O; Ahx = NCCCCCC(=O)O; azaGly = NNC(=O)O

T1 sequence (Q969F8 whole entry): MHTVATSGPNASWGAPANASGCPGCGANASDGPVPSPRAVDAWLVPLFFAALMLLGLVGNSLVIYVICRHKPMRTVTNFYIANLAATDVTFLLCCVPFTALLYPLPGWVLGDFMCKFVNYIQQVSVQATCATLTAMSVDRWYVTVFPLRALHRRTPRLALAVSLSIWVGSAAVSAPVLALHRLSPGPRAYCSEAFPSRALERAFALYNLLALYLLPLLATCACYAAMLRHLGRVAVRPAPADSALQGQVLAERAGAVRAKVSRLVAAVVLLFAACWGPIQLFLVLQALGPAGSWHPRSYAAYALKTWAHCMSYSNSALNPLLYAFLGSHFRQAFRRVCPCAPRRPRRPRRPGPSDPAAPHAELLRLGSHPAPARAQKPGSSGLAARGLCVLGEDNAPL

Molecule {DOTA-Ahx}-[dY][dW]NTF[azaGly]L[X2]W-NH2 (also: nonradioactive indium(III) chelated by DOTA, also called 1-In) [In Complex of Compound 1] yielded a Ki of less than 10 nM.

In the case of {DOTA-Ahx}-F[azaGly]L[X2]W-NH2 (also: nonradioactive indium(III) chelated by DOTA, also called 2-In) [In Complex of Compound 2], the Ki was less than 10 nM.

In turn, {DOTA-Ahx}-[dY][dW]NTF[azaGly]L[Api(1-amidino)]W-NH2 (also: nonradioactive indium(III) chelated by DOTA, also called 6-In) [In Complex of Compound 6] displayed a Ki of less than 10 nM. In the case of {DOTA-Ahx}-[dY][dW]NTF[azaGly]L[X2]W-NH2 (also: lutetium(III) chelated by DOTA, also called 1-Lu) [Lu Complex of Compound 1] it was less than 10 nM; in that of {DOTA-Ahx}-[dY][dW]NTF[azaGly]L[X2][4Pal]-NH2 (also: nonradioactive indium(III) chelated by DOTA, also called 105-In) [In Complex of Compound 105], less than 10 nM; in that of {DOTA-Ahx}-[dY][dW]NTF[azaGly]L[X2]W-NH2 (also: nonradioactive gallium(III) chelated by DOTA, also called 1-Ga) [Ga Complex of Compound 1], less than 10 nM.

On to X10-[dY]K(DOTA)NTF[azaGly]L[Api(1-amidino)]W-NH2 (also: indium(III) chelated by DOTA on Lys, also called 196-In) [In Complex of Compound 196], for which the Ki was less than 10 nM. As for {DOTA}-G[dY][d4Pal]NTF[azaGly]L[X2]Y-NH2 (also: nonradioactive indium(III) chelated by DOTA, also called 193-In) [Indium complex of Compound 193], the Ki was less than 10 nM.

In general, Ki refers to a measure of affinity in units of concentration, obtained from inhibition or displacement. A high value points to lower affinity.

The values above are taken from US20250312499A1 (RADIONETICS ONCOLOGY, published 2025).
